Assay results from patent US20160222124A1 (published 2016).
Substitutions are numbered along the chain they refer to.

Key:
Platelets Cynomolgus = target: T1, Platelets Cynomolgus (cynomolgus monkey, UniProt G7PG38 21-278); assay: flow cytometry, whole blood; cynomolgus platelets
T1 chain: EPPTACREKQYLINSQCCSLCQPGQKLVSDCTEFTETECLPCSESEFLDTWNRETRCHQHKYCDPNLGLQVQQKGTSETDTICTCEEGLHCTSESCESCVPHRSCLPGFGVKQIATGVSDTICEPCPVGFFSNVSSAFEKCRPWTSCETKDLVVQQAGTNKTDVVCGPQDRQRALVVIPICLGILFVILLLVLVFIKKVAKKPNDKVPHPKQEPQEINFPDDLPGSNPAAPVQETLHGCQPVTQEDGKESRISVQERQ

B cells Cynomolgus = target: T2, B cells Cynomolgus (cynomolgus monkey, UniProt G7PG38 21-278); assay: flow cytometry, whole blood; cynomolgus B cells
T2 chain: T1 chain

B cells Human = B cells Human (human, UniProt P25942 21-277); assay: flow cytometry, whole blood; human B cells
Platelets Human = Platelets Human (human, UniProt P25942 21-277); assay: flow cytometry, whole blood; human platelets
human CD40 (cellular) [1] = target: T3, human CD40 (cellular) (human, UniProt P25942 21-277); assay: flow cytometry; CD40-transfected HEK-293 cells
human CD40 (cellular) [2] = target: T3, human CD40 (cellular); assay: flow cytometry; RAMOS cells; humanized per legend
Target sequence in this assay (P25942 21-277): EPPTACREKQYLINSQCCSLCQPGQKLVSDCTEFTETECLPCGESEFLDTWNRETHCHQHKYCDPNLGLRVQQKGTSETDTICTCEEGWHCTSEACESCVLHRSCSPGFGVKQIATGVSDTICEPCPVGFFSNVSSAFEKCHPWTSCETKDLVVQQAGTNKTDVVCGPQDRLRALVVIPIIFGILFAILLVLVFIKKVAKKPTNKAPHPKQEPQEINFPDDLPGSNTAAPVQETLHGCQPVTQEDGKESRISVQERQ

human CD40 (cellular) [3] = target: T3, human CD40 (cellular); assay: flow cytometry; CD40-transfected HEK-293 cells; humanized 19B10
human CD40 (cellular) [4] = target: T3, human CD40 (cellular); assay: flow cytometry; CD40-transfected HEK-293 cells; humanized 10F2

B1: 4D11 (antibody, V domains shown)
VH: QLQLQESGPGLLKPSETLSLTCTVSGGSISSPGYYGGWIRQPPGKGLEWIGSIYKSGSTYHNPSLKSRVTISVDTSKNQFSLKLSSVTAADTAVYYCTRPVVRYFGWFDPWGQGTLVTVSS
VL: AIQLTQSPSSLSASVGDRVTITCRASQGISSALAWYQQKPGKAPKLLIYDASNLESGVPSRFSGSGSGTDFTLTISSLQPEDFATYYCQQFNSYPTFGQGTKVEIK
Platelets Cynomolgus
  EC50: 1200 pM
B cells Cynomolgus
  EC50: 700 pM
B cells Human
  EC50: 300 pM
Platelets Human
  EC50: 700 pM

B2: Antibody C (antibody, V domains shown)
VH: QVQLVQSGAEVKKPGASVKVSCTASGFNIKDYYVHWVKQAPGQGLEWMGRIDPEDGDSKYAPKFQGKATMTADTSTSTVYMELSSLRSEDTAVYYCTTSYYVGTYGYWGQGTLVTVSS
VL: DIQMTQSPSSLSASVGDRVTITCSASSSVSYMLWFQQKPGKAPKLLIYSTSNLASGVPSRFSGSGSGTDFTLTISSLQPEDFATYYCQQRTFYPYTFGGGTKVEIKR
Human CD40 (cellular) [1]
  EC50: 1900 pM

B3: Antibody A (antibody, V domains shown)
VH: EVQLVESGGGLVKPGGSLRLSCAASGFTFSDYGMHWVRQAPGKGLEWVAYISSGNRIIYYADTVKGRFTISRDNAKNSLYLQMNSLRAEDTALYYCARQDGYRYAMDYWAQGTLVTVSS
VL: DIVMTQSPDSLAVSLGERATMSCKSSQSLLNSGNQKNYLTWHQQKPGQPPKLLIYWTSTRESGVPDRFSGSGSGTDFTLTISSLQAEDVAVYYCQNDYTYPLTFGGGTKVEIKR
Human CD40 (cellular) [1]
  EC50: 1100 pM

B4: 20E2 (antibody, V domains shown)
VH: B3 VH with L18R, R19K, G42E, S78T, Y80F, N84T, A88S, A110G, L114S
VL: DIVMTQSPSSLTVTAGEKVTMSCKSSQSLLNSGNQKNYLTWHQQKPGQPPKLLIYWTSTRESGVPDRFTGSGSGTDFTLTISNLQAEDLAVYYCQNDYTYPLTFGAGTKLELK
Human CD40 (cellular) [2]
  EC50: 1220 pM

B5: 19B10 (antibody, V domains shown)
VH: EVQLQQSGAELVRPGASVQLSCTASGFNIKDYYVHWVKQRPEKGLEWIGRIDPEDGDTKFAPKFQGKATMTADTSSNTVYLHLSSLTSEDTAVYYCTTSYYVGTYGYWGQGTTLTVSS
VL: QIVLTQSPAIMSASPGEKVTITCSASSSVSYMLWFQQKPGTSPKLWIYSTSNLASGVPARFSGSGSGTSYSLTISRMEAEDAATYYCQQRTFYPYTFGGGTKLEIK
Human CD40 (cellular) [2]
  EC50: 360 pM
Human CD40 (cellular) [3]
  EC50: 1100 pM

B6: 10F2 (antibody, V domains shown)
VH: B5 VH with Q19K, V34I, F60Y, A61D, V79A
VL: B5 VL with A9T, T20I, S26T, M32I, T68A
Human CD40 (cellular) [2]
  EC50: 210 pM
Human CD40 (cellular) [4]
  EC50: 1900 pM

B7: 2H11 (antibody, V domains shown)
VH: B5 VH with Q19K, T58S, F60Y, V79A
VL: B5 VL with S62G
Human CD40 (cellular) [2]
  EC50: 320 pM
